Experimental data taken from paper PMC5383425, “Differential CLE peptide perception by plant receptors implicated from structural and functional analyses of TDIF-TDR interactions” (PLoS ONE, 2017).
Square brackets hold non-standard residues; d marks the D form. Ends that are not written are not given here. Hyp = O=C(O)[C@@H]1C[C@@H](O)CN1

Columns and labels:
Assay in all cases: ITC; 0.5–1 mM peptide titrated into 10–40 μM ecdTDR; 25°C; 10 mM sodium citrate, 100 mM NaCl, pH 5.5; fitted to one set of binding sites; MicroCal Auto-iTC200
Settings in all cases: both partners purified
[1] = molecular target: T1, ecdTDR S305A mutant (Arabidopsis thaliana, UniProt Q9FII5 30-642, S305A)
T1 construct: TDR/PXY of A. thaliana, extracellular domain, residues 30-642; also called alanine substitution mutation of TDR-S305; source: High Five insect cells (baculovirus), secreted, purified as the wild type (Ni-NTA, size-exclusion chromatography)
T1 sequence (looked up): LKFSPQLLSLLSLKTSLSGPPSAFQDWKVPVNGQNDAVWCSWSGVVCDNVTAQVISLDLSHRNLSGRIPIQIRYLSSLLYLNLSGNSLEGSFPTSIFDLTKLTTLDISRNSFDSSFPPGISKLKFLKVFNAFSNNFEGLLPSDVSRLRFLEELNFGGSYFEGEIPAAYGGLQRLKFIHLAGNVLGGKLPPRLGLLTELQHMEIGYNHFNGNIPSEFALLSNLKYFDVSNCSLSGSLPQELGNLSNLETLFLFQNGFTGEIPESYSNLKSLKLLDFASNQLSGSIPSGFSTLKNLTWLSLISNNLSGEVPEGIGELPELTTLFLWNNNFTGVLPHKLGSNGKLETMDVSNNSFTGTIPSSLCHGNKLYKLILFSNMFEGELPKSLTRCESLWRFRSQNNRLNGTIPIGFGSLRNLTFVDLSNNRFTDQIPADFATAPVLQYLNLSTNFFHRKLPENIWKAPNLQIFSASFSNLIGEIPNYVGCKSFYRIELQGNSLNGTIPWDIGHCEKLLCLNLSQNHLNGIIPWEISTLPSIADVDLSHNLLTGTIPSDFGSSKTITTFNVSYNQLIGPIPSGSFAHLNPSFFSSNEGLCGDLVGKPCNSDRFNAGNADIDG

[2] = molecular target: T2, ecdTDR R423A mutant (Arabidopsis thaliana, UniProt Q9FII5 30-642, R423A)
T2 construct: TDR/PXY of A. thaliana, extracellular domain, residues 30-642; source: High Five insect cells (baculovirus), secreted, purified as the wild type (Ni-NTA, size-exclusion chromatography)
T2 sequence (looked up): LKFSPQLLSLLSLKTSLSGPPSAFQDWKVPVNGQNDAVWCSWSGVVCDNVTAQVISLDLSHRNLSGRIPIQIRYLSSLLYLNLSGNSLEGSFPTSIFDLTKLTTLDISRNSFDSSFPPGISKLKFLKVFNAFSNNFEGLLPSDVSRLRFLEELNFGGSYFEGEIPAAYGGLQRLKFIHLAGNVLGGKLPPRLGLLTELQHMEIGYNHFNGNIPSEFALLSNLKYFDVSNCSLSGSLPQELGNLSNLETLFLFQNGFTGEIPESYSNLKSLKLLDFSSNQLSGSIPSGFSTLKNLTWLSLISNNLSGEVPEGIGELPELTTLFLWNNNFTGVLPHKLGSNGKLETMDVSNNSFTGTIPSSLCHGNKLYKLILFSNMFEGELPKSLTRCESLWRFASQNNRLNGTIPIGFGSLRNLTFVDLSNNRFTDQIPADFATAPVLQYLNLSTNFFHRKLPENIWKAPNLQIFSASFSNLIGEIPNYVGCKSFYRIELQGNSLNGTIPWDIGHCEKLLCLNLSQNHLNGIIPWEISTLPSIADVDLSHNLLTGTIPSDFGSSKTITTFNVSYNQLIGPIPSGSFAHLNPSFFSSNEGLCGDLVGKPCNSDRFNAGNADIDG

[3] = molecular target: T3, ecdTDR R138E mutant (Arabidopsis thaliana, UniProt Q9FII5 30-642, R138E)
T3 construct: TDR/PXY of A. thaliana, extracellular domain, residues 30-642; source: High Five insect cells (baculovirus), secreted, purified as the wild type (Ni-NTA, size-exclusion chromatography)
T3 sequence (looked up): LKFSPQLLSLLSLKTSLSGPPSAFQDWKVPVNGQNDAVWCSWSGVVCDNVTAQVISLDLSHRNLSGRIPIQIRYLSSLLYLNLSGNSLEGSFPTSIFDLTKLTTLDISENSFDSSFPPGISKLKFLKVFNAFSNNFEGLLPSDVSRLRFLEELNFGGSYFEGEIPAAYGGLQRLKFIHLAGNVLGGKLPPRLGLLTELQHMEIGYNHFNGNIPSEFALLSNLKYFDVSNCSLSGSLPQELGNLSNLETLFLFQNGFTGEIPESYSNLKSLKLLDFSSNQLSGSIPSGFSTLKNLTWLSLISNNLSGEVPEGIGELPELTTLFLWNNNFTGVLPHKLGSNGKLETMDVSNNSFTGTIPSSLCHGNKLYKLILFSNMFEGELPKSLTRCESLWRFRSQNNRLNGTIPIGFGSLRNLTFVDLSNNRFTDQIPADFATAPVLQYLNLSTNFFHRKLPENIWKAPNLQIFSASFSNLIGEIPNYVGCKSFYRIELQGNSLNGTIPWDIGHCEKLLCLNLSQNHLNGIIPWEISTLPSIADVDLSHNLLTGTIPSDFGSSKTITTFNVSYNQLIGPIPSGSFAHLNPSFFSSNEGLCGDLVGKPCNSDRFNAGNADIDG

[4] = molecular target: T4, ecdTDR S162A mutant (Arabidopsis thaliana, UniProt Q9FII5 30-642, S162A)
T4 construct: TDR/PXY of A. thaliana, extracellular domain, residues 30-642; source: High Five insect cells (baculovirus), secreted, purified as the wild type (Ni-NTA, size-exclusion chromatography)
T4 sequence (looked up): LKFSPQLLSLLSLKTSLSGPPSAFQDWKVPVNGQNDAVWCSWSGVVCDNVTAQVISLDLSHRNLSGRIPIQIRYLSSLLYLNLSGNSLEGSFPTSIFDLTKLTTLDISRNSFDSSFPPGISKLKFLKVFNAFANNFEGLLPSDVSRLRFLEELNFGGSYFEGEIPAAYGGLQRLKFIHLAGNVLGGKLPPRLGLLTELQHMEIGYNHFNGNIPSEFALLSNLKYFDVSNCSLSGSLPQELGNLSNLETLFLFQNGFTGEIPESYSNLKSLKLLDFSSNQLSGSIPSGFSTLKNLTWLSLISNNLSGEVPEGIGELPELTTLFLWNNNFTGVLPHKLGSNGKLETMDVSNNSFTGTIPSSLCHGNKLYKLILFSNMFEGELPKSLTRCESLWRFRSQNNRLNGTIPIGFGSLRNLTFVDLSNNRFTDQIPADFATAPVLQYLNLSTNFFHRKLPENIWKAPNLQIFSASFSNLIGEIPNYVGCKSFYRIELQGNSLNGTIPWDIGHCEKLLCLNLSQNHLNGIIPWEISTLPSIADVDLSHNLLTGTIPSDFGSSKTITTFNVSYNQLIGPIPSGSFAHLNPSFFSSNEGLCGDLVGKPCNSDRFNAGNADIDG

B1: Tracheary Element Differentiation Inhibitory Factor (TDIF) peptide (peptide)
peptide: HEV[Hyp]SG[Hyp]NPISN
notes: TDIF, the 12-residue CLE peptide processed from CLE41 and CLE44 of A. thaliana; printed as HEV(Hyp)SG(Hyp)NPISN; numbers count on: the 12-residue peptide; CLE44 encodes the same peptide; also called wild type TDIF; wtTDIF; source: synthetic peptide (peptide 2.0)
fold lower binding than wild-type ecdTDR [1]: 4.4 fold | binding result [2]: binds | binding result [3]: binds | binding result [4]: binds
